According to paper PMC9088798, “An Approach to Derive Functional Peptide Inhibitors of Transcription Factor Activity” (JACS Au, 2022):

System: WT-mDHFR
Test: DHFR activity assay (NADPH turnover at 340 nm), WT-mDHFR
Type: biochemical, murine
Conditions: 100 nM WT-mDHFR, 60 µM NADPH, 50 µM DHF, no inhibitor; absorbance 340 nm; first 2.5 min, blank subtracted; average of triplicate experiments, one SD
Experimental: (A) Fifteen TRE sites were introduced into the mDHFR gene (2 silent and 13 substitutions) to allow for a cJun-induced transcriptional block. […] Change in absorbance at 340 nm was measured to determine the rate of NADPH turnover by (B) WT-mDHFR and (C) TRE-mDHFR with or without the substrate DHF. […] Specific activity was calculated from the linear initial rate (first 2.5 min for WT-mDHFR, first 10 min for TRE-mDHFR; +NADPH only reaction blank subtracted). Data are averages from triplicate experiments with errors shown as one standard deviation.
Jupiter Proteo column (4-μm particle size, 90 Å pore size, 250 × 10 mm; Phenomenex) using a water:acetonitrile gradient (0.1% TFA). Peptides without a SUMO tag, were concentrated after Histrap elution and HPLC purified. […]
or Mtx (1 µM in reaction). Reactions were initiated by the addition of DHF (50 µM in reaction plus a blank reaction with no DHF) and the absorbance at 340 nm of samples was measured using a Varian Cary 50 UV-Vis spectrophotometer. The specific activity (∆OD/minsample― ∆OD/minblank) was calculated using the following equation. Specific activity = 12.3× mg protein Library Construction and TBS Assay: Library inserts were produced using PCR fill-in reactions from synthesised primers (Sigma) with degenerate codons at the desired positions to produce the correct residue options. […]

B1: WT-mDHFR: wild-type murine dihydrofolate reductase, 6xHis-tagged (protein, UniProt P00375 2-187, looked up)
Dihydrofolate reductase: VRPLNCIVAVSQNMGIGKNGDLPWPPLRNEFKYFQRMTTTSSVEGKQNLVIMGRKTWFSIPEKNRPLKDRINIVLSRELKEPPRGAHFLAKSLDDALRLIEQPELASKVDMVWIVGGSSVYQEAMNQPGHLRLFVTRIMQEFESDTFFPEIDLGKYKLLPEYPGVLSEVQEEKGIKYKFEVYEKKD
modifications: 6xHis tag
notes: wild-type murine dihydrofolate reductase, 6xHis-tagged
- Specific activity, +NADPH+DHF: 0.263 ± 0.002 μmol / min / mg protein
